In publication PMC12331092 (2025):
Square brackets hold non-standard residues; d marks the D form. Ends that are not written are not given here. pT = C[C@@H](OP(=O)(O)O)[C@H](N)C(=O)O; pS = N[C@@H](COP(=O)(O)O)C(=O)O

Columns and labels:
[1] = molecular target: T1, Rattus norvegicus wild-type β-arrestin2 (Rattus norvegicus, UniProt P29067 1-410); test: ITC; site I (KD1)
[2] = molecular target: T1, Rattus norvegicus wild-type β-arrestin2; test: ITC; site II (KD2)

T1 sequence (P29067 whole entry): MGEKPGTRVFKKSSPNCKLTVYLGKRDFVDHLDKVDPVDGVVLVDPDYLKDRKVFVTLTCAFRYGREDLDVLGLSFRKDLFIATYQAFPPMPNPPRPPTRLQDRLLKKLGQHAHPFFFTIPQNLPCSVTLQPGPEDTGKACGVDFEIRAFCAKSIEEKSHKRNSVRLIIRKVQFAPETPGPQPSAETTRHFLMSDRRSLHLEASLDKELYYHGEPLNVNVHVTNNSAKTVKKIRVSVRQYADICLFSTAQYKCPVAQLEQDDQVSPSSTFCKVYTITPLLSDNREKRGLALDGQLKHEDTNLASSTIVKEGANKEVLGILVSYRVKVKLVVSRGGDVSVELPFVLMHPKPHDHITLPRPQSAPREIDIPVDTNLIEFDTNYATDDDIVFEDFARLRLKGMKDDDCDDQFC

**Q.** Which Kd [1] does the source give for ASRV[pS]E[pT]EY[pS]ALEQ [C7pp2, phosphopeptide from the carboxyl terminus of CXCR7 (residues 346-359)] here?
**A.** 79.9 nM

**Q.** What about the Kd [2] of the same binder?
**A.** 3.32 µM
